{"source": "paper PMC3312813", "about": "(Nature chemical biology, 2011)", "system": "live HeLa cells", "settings": "8 µM Flu-HBS 3, HeLa cells, 2.5 hours, fixed, Z-section fluorescence microscopy"}
{"smiles": "CC[C@H](C)[C@H](NC(=O)CN1C/C=C/CCC(=O)N[C@@H](Cc2ccccc2)C(=O)N[C@@H](CCC(=O)O)C1=O)C(=O)N[C@@H](Cc1ccc(O)cc1)C(=O)N[C@@H](CCCNC(=N)N)C(=O)N[C@@H](CC(C)C)C(=O)N[C@@H](CCC(=O)O)C(=O)N[C@@H](CC(C)C)C(=O)N[C@@H](CC(C)C)C(=O)N[C@@H](CCCCN)C(=O)N[C@@H](C)C(=O)N[C@@H](CCC(=O)O)C(=O)N[C@@H](CCC(=O)O)C(=O)N[C@@H](C)C(=O)N[C@@H](CC(N)=O)C(=O)N[C@@H](CCCCNC(=O)c1ccc2c(c1)C(=O)OC21c2ccc(O)cc2Oc2cc(O)ccc21)C(N)=O", "note": "[Flu-HBS 3]", "values": [{"measurement": "Cellular uptake at 4 °C as compared to 37 °C", "value": "significantly reduced"}]}
